Measurements from publication PMC8534003 (2021).
Where no end group is shown, it is not given here. The star is where a group is joined. Biotin = O=C1N[C@H]2[C@H](CS[C@H]2CCCCC(=O)*)N1

Target: human recombinant FGF-2 (human, UniProt P09038 143-288)
Sequence (P09038 143-288): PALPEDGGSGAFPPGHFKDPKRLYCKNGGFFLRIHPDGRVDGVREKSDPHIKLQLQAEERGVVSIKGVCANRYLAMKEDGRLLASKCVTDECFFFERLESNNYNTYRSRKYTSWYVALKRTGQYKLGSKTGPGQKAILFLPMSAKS

koff: 0.00207 s⁻¹
Binder: Biotin-KKKQKNGKKHQKKKVLKVRKSQRSRQKKTT [biotinylated CXCL9(74-103)]
